# Measured values reported in the RNAGym collection of RNA variant scans (doi:10.7554/elife.90254).
# B1: OR4K15 (parent)
# chain: GUUAACGGUCAUAGGCCAUGGAAACUAGGAGCACCAUUUCGCUGCCAGUGAAGAAAUGAACAAAGAAAAUCUGGGCCAGGCAGGCAUCAAAAGAAAUAGUCUUGCGCUCAACCAGAAAGUCUGUAAUCAUUUUAAGGGUA
# Variants of: B1
# Experiment: self-cleavage, relative activity (ratio to wild type); higher = more cleavage; in vitro, sequencing; the parent is a self-cleaving ribozyme
row,Variant,self-cleavage
1,GUUAACGGUCAUAGGCCAUGGAAACUAGGAGCACCAUUUCGCUGCCUGUGAAGAAAUGAACAAAGAAAAUCUGGGCCAGGCAGGCAUCAAAAGAAAUAGUCUUGCGCUCAACCAGAAAGUCUGUAAUCAUUCUAAGGGUA [A47U U132C],1.02
2,GUUAACGGUCAUAGGCCAUGGAAACUAGGAGCACCAUUUCGCUGCCAGAGAAGAAAUGAACAAAGAAAAUCUGGGCCAGGCAGGCAUCAAAAGAAAUCGUCUUGCGCUCAACCAGAAAGUCUGUAAUCAUUUUAAGGGUA [U49A A98C],1.58
3,GUUAACGGUCAUAGGCCAUGGAAACUAGGAGCACCAUUUCGCUGCCAGUGAAGAGAUGAACAAAGAAAAUCUGGGCCAGGCAGGCAUCAAAAGAAUUAGUCUUGCGCUCAACCAGAAAGUCUGUAAUCAUUUUAAGGGUA [A55G A96U],1.11
4,GUUAACGGUUAUAGGCCAUGGAAACUAGGAGCACCAUUUCGCUGCCAGUGAAGAGAUGAACAAAGAAAAUCUGGGCCAGGCAGGCAUCAAAAGAAAUAGUCUUGCGCUCAACCAGAAAGUCUGUAAUCAUUUUAAGGGUA [C10U A55G],0.52
5,GUUAACGGCCAUAGGCCAUGGAAACUAGGAGCACCAUUUCGCUGCCAGUGAAGAAAUGGACAAAGAAAAUCUGGGCCAGGCAGGCAUCAAAAGAAAUAGUCUUGCGCUCAACCAGAAAGUCUGUAAUCAUUUUAAGGGUA [U9C A59G],1.32
6,GUUGACGGUCAUAGGCCAUGGAAACUAGGAGCACCUUUUCGCUGCCAGUGAAGAAAUGAACAAAGAAAAUCUGGGCCAGGCAGGCAUCAAAAGAAAUAGUCUUGCGCUCAACCAGAAAGUCUGUAAUCAUUUUAAGGGUA [A4G A36U],0.79
7,GUUGACGGUCAUAGGCCAUGGAAACUAGGAGCACCAUUUCGCUGCCAGUGAAGAAAUGAACAAAGAAAAUCUGGGCCAGGCAGGCAUCAAAUGAAAUAGUCUUGCGCUCAACCAGAAAGUCUGUAAUCAUUUUAAGGGUA [A4G A92U],1.44
8,GUUAACGGUCAUAGGCCAUGGAAACUAGGAGCACCAUUUCGCUGCCAGUGAAGAAAUAAACAAAGAAAAUCUGGGCCAGGCAGGCAUCAAAAGAAAUAGUCUUGCGCUCAACCAGAAAGUCUGUAAUCAUUCUAAGGGUA [G58A U132C],1.64
9,GUUAACGGUCAUAGGCCAUGGGAACUAGGAGCACCAUUUCGCUGCCAGUGAAGAAAUGAACAAAGAAAAUCUGGGCCAGGCAGGCAUCAAAAGAAAUAGUCUGGCGCUCAACCAGAAAGUCUGUAAUCAUUUUAAGGGUA [A22G U103G],0.05
10,GUUAACGGUCAUAGGCCAUGGAAACUAGGAGCACCAUUUCGCUGCCGGUGACGAAAUGAACAAAGAAAAUCUGGGCCAGGCAGGCAUCAAAAGAAAUAGUCUUGCGCUCAACCAGAAAGUCUGUAAUCAUUUUAAGGGUA [A47G A52C],0.5
11,GUUAACGGUCAUAGGCCAUGGAAACUAGGAGCACCAUUUCGCUGCCAGUGAGGAAAUGAACAAUGAAAAUCUGGGCCAGGCAGGCAUCAAAAGAAAUAGUCUUGCGCUCAACCAGAAAGUCUGUAAUCAUUUUAAGGGUA [A52G A64U],0.82
12,GUUAACGGUCAUAGGCCAUGGUAACUAGGGGCACCAUUUCGCUGCCAGUGAAGAAAUGAACAAAGAAAAUCUGGGCCAGGCAGGCAUCAAAAGAAAUAGUCUUGCGCUCAACCAGAAAGUCUGUAAUCAUUUUAAGGGUA [A22U A30G],1.13
13,GUUAACGGUCAUAGGCCAUGGAAAUUAGGAGCACCAUUUCGCUGCCAGUGAAGAAAUGGACAAAGAAAAUCUGGGCCAGGCAGGCAUCAAAAGAAAUAGUCUUGCGCUCAACCAGAAAGUCUGUAAUCAUUUUAAGGGUA [C25U A59G],1.24
14,GUUAACGGUCAUGGGCCAUGGAAACUAGGAGCACCAUUUCGCUGCCAGUGAAGAAAUGAACAUAGAAAAUCUGGGCCAGGCAGGCAUCAAAAGAAAUAGUCUUGCGCUCAACCAGAAAGUCUGUAAUCAUUUUAAGGGUA [A13G A63U],0.77
15,GUUAACGGUCAUAGGCCAUGGAAACUAGGAGCACCAUUUCGCUGCCAGCGAAGAAAUGAACAAAGAAAAUCUGGGCCAGGCAGGCAUCAAAAGAAAUAGUCUUGCGCUCAACCAGAAAGUCUGUAAUCGUUUUAAGGGUA [U49C A129G],1.82
16,GUUAACGGUCAUAGGCCAUGGAAACUAGGAGCACCAUUUCGCUGCCAGUGAAGAAAUGAACAAAGAAAAUCUGGGCCAGGCAGGCAUCAAAAGAAAUAGUCUUGCUCUCAACCAGAAAGUCUGUAAUCGUUUUAAGGGUA [G106U A129G],0.01
17,GUUAACGAUCAUAGGCCAUGGAAACUAGGAGCACCAUUUCGCUGCCAGUGAAGAAAAGAACAAAGAAAAUCUGGGCCAGGCAGGCAUCAAAAGAAAUAGUCUUGCGCUCAACCAGAAAGUCUGUAAUCAUUUUAAGGGUA [G8A U57A],2.18
18,GUUAACGGUCAUAGGCCAUGGAAACUAGGAGCACCAUUUCGCUGCCAGUGAAGAAAUGAACAAAGAAAAUCUGGGCCAGGCAGGCAUCAAAAGAAAUAGUCUCGCGCUCAACCAGAAAGUCUGUAAUCAUUUUAGGGGUA [U103C A135G],0.95
19,GUUAACGGUCAUAGGCCAUGGAAACUAGGAGCACCAUUUCGCUGCCAGUGAAGAAAUGAACAAAGAAAAUCUGGGCCAGGCAGGCAUCAAAAGAAAUAGUCUUGCGCCCAACCAGAAGGUCUGUAAUCAUUUUAAGGGUA [U108C A118G],0.01
20,GUUAACGGUCAUAGGCCAUGGAAACUAGGAGCACCAUUUCGCUGCCAGUGAAGAAAUGAACACAGAAAAUCUGGGCCAGGCAGGCAUCAAAAGAAAUAGUCUUGCGCUCAACCAGAAAGUCUGUAAUCAUUCUAAGGGUA [A63C U132C],2.13
21,GUUAACGGUCAUAGGCCAUGGAAACUAGGAGCACCAUUUCGCUGCCAGUGAAGAAAUGAACAAAGAAGAUCUGGGCCAGGCAGGCACCAAAAGAAAUAGUCUUGCGCUCAACCAGAAAGUCUGUAAUCAUUUUAAGGGUA [A68G U87C],1.12

row,Variant,self-cleavage
1,GUUAACGGUCAUAGGCCAUGGAAACUAGGAGCACCAUUUCGCUGCCAGUGAAGAAAUGAACAAAGAAAAUCUGGGUCAGGCAGGCAUCAAAAGAAAUAGUCUUGUGCUCAACCAGAAAGUCUGUAAUCAUUUUAAGGGUA [C76U C105U],0.03
2,GUUAACGGUCAUAGGCCAUGGAAACUAGGAGCACCAUUUCGCUGCCAGUGAAGAAAUGAACAAAGAAAAUCUGGGCCAGGCAGGCAUCAAUAGUAAUAGUCUUGCGCUCAACCAGAAAGUCUGUAAUCAUUUUAAGGGUA [A91U A94U],1.87
3,GCUAACGGUCAUAGGCCAUGGAAACUAGGAGCACCAUUUCGCUGCCAGUGAAGAAAUGAACAAAGAAAAUCUGGGCCAGGCAGGCAUCAAAAGAAAUAGUCUUGCGCCCAACCAGAAAGUCUGUAAUCAUUUUAAGGGUA [U2C U108C],0.03
4,GUUAACGGUCAUAGGCCAUGGAAACUAGGAGCACCAUUUCGCUGCCAGUGAAGAAAUGAACAAAGAAAAUCUGGGCCAGGCAGGCAUCAAAAGAAAUUGUCUUGCGCUCAACCAGAAAGUCUGUAAUCAUUUUAGGGGUA [A98U A135G],2.4
5,GUUAACGGUCAUAGGCCAUGGUAACUAGGAGCACCAUUUCGCUGCCAGUGAAGAAAUGAACAAAGAAAAUCUGGGCCAGGCAGGCAUCAAGAGAAAUAGUCUUGCGCUCAACCAGAAAGUCUGUAAUCAUUUUAAGGGUA [A22U A91G],0.68
6,GUUAACGGUCAUAGGCCAUGGAAACUAGGAGCACCAUUUCGCUGCCAGUGAAGAAAUGAACAAUGAAAAUCUGGGCCAGGCAGGCAUCGAAAGAAAUAGUCUUGCGCUCAACCAGAAAGUCUGUAAUCAUUUUAAGGGUA [A64U A89G],1.6
7,GUUAACGGUCAUAGGCCAUGGAAACUAUGAGCACCAUUUCGCUGCCAGUGAAGAAAUGAACAAAGAAAAUCUGGGCCAGGCAGGCAUCAAAAGAAAUAGCCUUGCGCUCAACCAGAAAGUCUGUAAUCAUUUUAAGGGUA [G28U U100C],2.35
8,GUUAACGGUCAUAGGCCAUGGAAACUAGGAGCACCAUUUCGCUGCCAGUGAAGAAAUGAACGAAGAAAAUCUGGGCCAGGCAGGCAUCAAAAGAAAUAGUCUUGCGCUCAACUAGAAAGUCUGUAAUCAUUUUAAGGGUA [A62G C113U],0.14
9,GUUAACGGUCAUAGGCCAUGGAAACUAGGAGCCCCAUUUCGCUGCCAGUGAAGAAAUGAACAAAGAAAAUCUAGGCCAGGCAGGCAUCAAAAGAAAUAGUCUUGCGCUCAACCAGAAAGUCUGUAAUCAUUUUAAGGGUA [A33C G73A],0.33
10,GUUAACGGUCAUAGGCCAUGGGAACUAGGAGCACCAUUUCGCUGCCAGUGAAGAAAUGAACAAAGAAAAUCUGGGCCAGGCAGGCAUCAAAAGAAAUAGUCUUGCGCUCAACCAGUAAGUCUGUAAUCAUUUUAAGGGUA [A22G A116U],0.35
11,GUUAACUGUCAUAGGCCAUGGAAACUAGGAGCACCAUUUCGCUGCCAGUGAAGAAAUGAACAAAGAAAAACUGGGCCAGGCAGGCAUCAAAAGAAAUAGUCUUGCGCUCAACCAGAAAGUCUGUAAUCAUUUUAAGGGUA [G7U U70A],1.27
12,GUUAACAGUCAUAGGCCAUGGAAACUAGGAGCACCAUUUCGCUGCCAGUGAAGAAAUGAACAAAGAAAAUCUGGGCCAGGCAGGCAUCAAAAGAAAUAGUCUUGCGCUCAACCAGAAAGUCUGUAAUCAUGUUAAGGGUA [G7A U131G],1.7
13,GUUAACGGUCAUAGGCCAUGGAAACCAGGAGCACCAUUUCGCUGCCAGUGAAGAAAUGAACAAAGAAAAUCUGGGCCAGGCAGGCACCAAAAGAAAUAGUCUUGCGCUCAACCAGAAAGUCUGUAAUCAUUUUAAGGGUA [U26C U87C],0.37
14,GCUAACGGUCAUAGGCCAUGGAAACUAGGAGCACCAUUUCGCUGCCAGUGAAGAAAUGAACAAAGAAAAUCUGGGCCAGGCAGGCAUCAAAAGAAAUAGUCUUGCGCUCAACCUGAAAGUCUGUAAUCAUUUUAAGGGUA [U2C A114U],0.09
15,GUUAACGGUCAUAGGCCAUGGGAACUAGGAGCACCAUUUCGCUGCCAGUGGAGAAAUGAACAAAGAAAAUCUGGGCCAGGCAGGCAUCAAAAGAAAUAGUCUUGCGCUCAACCAGAAAGUCUGUAAUCAUUUUAAGGGUA [A22G A51G],1.22
16,GUUAACGGUCAUAGGCCAUGGAAACUAGGAGCACCAUUUCGCUGCCAGUGAAGAAAUGAACUAAGAAAAUCUGGGCCAGGCAGGCAUCAAAAGGAAUAGUCUUGCGCUCAACCAGAAAGUCUGUAAUCAUUUUAAGGGUA [A62U A94G],1.69
17,GUUAACGGUCAUAGGCCAUGGAAACUAGGAGCACCAUUUCGCUGCCAAUGAAGAAAUGAACAAAGAAAAUCUGGGCCAGGCAGGCAUCAAAAGAAAUAGUCAUGCGCUCAACCAGAAAGUCUGUAAUCAUUUUAAGGGUA [G48A U102A],1.1
18,GUUAACGGUCAUAGGCCAUGGAAACUAGGAGCACCAUUUCGCUGCCAGUGAAGAAAUGAACAAAGAAAAUCUGGGCUAGGCGGGCAUCAAAAGAAAUAGUCUUGCGCUCAACCAGAAAGUCUGUAAUCAUUUUAAGGGUA [C77U A82G],1.26
19,GUUAAUGGUCAUAGGCCAUGGAAACUAGGAGCACCAUCUCGCUGCCAGUGAAGAAAUGAACAAAGAAAAUCUGGGCCAGGCAGGCAUCAAAAGAAAUAGUCUUGCGCUCAACCAGAAAGUCUGUAAUCAUUUUAAGGGUA [C6U U38C],1.48
20,GUUAACGGUCAUAGGCCAUGGAAACUAGGAGCACCAUUUCGCCGCCAGUGAAGAAAUGAACAAAGAAAAUCUGGGCCAGGCAGGCAUCAAAAGAAAUAGUCUGGCGCUCAACCAGAAAGUCUGUAAUCAUUUUAAGGGUA [U43C U103G],0.01
